Entries after “also recorded” stand apart in the source; their conditions may differ. Like-named read-outs stand apart in the source and are kept apart here.

The target in assay [1] is T1, murine VEGFR2 (Mus musculus (Mouse), UniProt P35918). Briefly: Biacore analysis of binding to murine VEGFR2. Conditions: murine antigen.
The target of assay [2] is T2, human VEGFR2 (Homo sapiens (Human), UniProt P35968). The experiment in a line: ELISA receptor binding, hVEGFR2.
Assay [3] addresses binding of murine VEGF with murine VEGFR2 (Mus musculus (Mouse), UniProt P35918). Briefly: ELISA ligand blocking, murine VEGF / murine VEGFR2.
The subject of assay [4] is KDR-PAE cells. Briefly: VEGF-induced migration of KDR-PAE cells. The class given is cell-based, porcine. As to conditions: VEGF gradient. As to the method:
Migration of KDR-PAE cells was induced with a VEGF gradient (50 ng/ml VEGF (up), 100 ng/ml VEGF (low)).

Assay [5] has as its system phosphorylation of KDR and p44/42 in KDR-PAE cells. The experiment in a line: VEGFR2-mediated signal transduction in KDR-PAE cells. Format: cell-based, porcine.
The subject of assay [6] is KDR-PAE cells. The experiment in a line: proliferation of KDR-PAE cells. Format: cell-based, porcine.
Assay [7] addresses T2, human VEGFR2. The experiment in a line: Biacore analysis of binding to human VEGFR2. Conditions: human antigen.
The target in assay [8] is binding of human VEGF with human VEGFR2 (Homo sapiens (Human), UniProt P35968). Briefly: ELISA ligand blocking, human VEGF / human VEGFR2.
In assay [9] the target is T1, murine VEGFR2. The experiment in a line: ELISA receptor binding, mVEGFR2.
In assay [10] the target is VEGFR2 on MS1 murine endothelial cells (Mus musculus (Mouse), UniProt P35918). The experiment in a line: binding to VEGFR2 on MS1 murine endothelial cells. The class given is cell-based.
In assay [11] the test system is phosphorylation of KDR and p44/42 in HUVEC. The experiment in a line: VEGFR2-mediated signal transduction in HUVEC. Format: cell-based, human.
Assay [12] addresses rat VEGFR2 (Rattus norvegicus (Rat), UniProt O08775). The experiment in a line: Biacore analysis of binding to rat VEGFR2. As to conditions: rat antigen. On the procedure:
The binding constants of Mab 147 and Mab 149 as well as the parent Mab 160 for human, murine, and rat VEGFR2 were determined by Biacore analysis (Table 4).

The target of assay [13] is human VEGFR2 on HUVEC and KDR-PAE cells (Homo sapiens (Human), UniProt P35968). Briefly: binding to hVEGFR2 on HUVEC and KDR-PAE cells. Format: cell-based. An excerpt:
Binding of Mab 147 to hVEGFR2 and mVEGFR2 expressed on cell membranes was also confirmed. […] Mab 147 also bound to mVEGFR expressed by MS1 murine endothelial cells (FIG. 8B).

T1 sequence (P35918 20-1345): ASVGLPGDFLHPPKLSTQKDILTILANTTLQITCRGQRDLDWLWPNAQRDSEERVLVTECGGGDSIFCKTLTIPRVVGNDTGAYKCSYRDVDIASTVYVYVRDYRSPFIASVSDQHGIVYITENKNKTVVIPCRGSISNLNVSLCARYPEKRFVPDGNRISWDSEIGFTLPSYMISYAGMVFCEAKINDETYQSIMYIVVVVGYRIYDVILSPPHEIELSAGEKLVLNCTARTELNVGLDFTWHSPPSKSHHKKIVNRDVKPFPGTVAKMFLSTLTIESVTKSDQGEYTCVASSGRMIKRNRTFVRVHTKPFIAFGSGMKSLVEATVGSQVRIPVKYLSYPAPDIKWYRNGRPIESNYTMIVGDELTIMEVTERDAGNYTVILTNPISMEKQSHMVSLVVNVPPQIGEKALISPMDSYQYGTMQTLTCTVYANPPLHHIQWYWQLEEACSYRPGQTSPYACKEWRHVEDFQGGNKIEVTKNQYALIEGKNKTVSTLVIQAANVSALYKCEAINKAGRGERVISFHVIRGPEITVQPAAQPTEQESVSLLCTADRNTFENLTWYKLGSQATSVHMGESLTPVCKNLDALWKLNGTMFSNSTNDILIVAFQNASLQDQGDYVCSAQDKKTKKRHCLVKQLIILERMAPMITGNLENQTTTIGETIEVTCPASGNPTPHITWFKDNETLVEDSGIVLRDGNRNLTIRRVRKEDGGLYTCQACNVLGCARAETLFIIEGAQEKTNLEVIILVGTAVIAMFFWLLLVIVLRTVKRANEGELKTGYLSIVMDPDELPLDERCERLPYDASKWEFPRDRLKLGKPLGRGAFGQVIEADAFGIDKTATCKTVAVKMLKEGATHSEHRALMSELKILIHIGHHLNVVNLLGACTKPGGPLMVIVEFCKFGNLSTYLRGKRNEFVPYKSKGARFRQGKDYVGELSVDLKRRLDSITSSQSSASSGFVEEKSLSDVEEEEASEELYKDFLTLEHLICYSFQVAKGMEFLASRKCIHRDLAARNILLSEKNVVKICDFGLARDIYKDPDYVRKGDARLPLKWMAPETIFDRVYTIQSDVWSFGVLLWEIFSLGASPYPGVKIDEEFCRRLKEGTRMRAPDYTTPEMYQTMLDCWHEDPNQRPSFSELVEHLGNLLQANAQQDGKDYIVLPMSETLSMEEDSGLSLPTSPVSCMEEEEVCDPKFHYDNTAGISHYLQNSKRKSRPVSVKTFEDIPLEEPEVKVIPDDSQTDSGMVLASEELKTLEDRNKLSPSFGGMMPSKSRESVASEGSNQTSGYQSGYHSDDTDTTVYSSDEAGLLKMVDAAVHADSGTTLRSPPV
T2 sequence (P35968 20-1356): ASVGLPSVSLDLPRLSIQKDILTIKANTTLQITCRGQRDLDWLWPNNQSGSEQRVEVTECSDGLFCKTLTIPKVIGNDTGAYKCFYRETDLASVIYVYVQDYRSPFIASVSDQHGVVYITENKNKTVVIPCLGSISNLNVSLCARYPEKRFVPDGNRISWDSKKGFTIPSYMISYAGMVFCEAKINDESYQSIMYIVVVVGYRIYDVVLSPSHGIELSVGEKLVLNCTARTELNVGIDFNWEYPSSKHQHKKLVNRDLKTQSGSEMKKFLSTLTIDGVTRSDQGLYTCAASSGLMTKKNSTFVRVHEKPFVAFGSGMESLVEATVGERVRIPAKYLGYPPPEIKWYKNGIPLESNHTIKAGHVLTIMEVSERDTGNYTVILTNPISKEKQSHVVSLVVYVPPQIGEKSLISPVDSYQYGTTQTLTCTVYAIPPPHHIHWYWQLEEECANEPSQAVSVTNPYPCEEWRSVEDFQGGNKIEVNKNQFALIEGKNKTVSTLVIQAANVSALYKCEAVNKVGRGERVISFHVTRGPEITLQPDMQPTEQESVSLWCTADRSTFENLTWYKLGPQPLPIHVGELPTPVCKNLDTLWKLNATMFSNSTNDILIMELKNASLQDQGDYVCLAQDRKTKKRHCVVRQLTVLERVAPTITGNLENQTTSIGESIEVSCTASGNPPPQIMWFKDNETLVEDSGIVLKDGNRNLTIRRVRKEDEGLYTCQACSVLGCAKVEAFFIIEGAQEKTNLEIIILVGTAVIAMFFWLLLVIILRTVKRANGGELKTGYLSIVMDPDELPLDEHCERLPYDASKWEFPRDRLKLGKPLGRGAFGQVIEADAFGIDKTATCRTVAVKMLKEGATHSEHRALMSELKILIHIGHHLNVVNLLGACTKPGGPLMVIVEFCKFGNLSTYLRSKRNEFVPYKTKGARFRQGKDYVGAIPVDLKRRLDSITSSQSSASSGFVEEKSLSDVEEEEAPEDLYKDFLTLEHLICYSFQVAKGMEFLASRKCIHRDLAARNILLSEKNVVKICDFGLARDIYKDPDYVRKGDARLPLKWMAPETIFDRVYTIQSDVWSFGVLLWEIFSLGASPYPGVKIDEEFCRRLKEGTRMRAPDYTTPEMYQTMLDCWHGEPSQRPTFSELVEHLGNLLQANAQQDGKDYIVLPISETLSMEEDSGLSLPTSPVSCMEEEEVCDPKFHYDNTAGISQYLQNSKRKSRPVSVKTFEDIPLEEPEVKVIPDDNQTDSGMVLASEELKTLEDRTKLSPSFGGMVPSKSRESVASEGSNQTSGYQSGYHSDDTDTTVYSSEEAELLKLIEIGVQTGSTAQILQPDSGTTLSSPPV
Sequence of binding of murine VEGF with murine VEGFR2 (P35918 20-762): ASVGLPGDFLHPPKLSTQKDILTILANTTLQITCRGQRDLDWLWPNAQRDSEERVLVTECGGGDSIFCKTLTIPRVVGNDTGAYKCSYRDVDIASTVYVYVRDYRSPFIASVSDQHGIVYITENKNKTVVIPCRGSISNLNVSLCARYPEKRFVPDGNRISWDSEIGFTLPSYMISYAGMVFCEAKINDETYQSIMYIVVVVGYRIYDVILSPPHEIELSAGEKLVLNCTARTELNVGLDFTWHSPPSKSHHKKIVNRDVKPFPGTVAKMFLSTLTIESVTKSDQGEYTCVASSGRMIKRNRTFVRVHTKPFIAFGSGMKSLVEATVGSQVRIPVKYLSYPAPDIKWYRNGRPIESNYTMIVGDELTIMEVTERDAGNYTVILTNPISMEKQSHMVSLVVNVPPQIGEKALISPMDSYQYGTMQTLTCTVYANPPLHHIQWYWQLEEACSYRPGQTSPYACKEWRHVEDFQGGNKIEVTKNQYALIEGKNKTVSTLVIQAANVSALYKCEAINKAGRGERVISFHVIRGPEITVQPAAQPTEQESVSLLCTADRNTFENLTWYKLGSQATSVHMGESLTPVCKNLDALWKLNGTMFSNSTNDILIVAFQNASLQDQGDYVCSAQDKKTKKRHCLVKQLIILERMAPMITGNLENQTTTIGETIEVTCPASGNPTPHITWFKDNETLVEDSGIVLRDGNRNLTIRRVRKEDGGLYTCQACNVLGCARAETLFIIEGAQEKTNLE
Sequence of binding of human VEGF with human VEGFR2 (P35968 20-764): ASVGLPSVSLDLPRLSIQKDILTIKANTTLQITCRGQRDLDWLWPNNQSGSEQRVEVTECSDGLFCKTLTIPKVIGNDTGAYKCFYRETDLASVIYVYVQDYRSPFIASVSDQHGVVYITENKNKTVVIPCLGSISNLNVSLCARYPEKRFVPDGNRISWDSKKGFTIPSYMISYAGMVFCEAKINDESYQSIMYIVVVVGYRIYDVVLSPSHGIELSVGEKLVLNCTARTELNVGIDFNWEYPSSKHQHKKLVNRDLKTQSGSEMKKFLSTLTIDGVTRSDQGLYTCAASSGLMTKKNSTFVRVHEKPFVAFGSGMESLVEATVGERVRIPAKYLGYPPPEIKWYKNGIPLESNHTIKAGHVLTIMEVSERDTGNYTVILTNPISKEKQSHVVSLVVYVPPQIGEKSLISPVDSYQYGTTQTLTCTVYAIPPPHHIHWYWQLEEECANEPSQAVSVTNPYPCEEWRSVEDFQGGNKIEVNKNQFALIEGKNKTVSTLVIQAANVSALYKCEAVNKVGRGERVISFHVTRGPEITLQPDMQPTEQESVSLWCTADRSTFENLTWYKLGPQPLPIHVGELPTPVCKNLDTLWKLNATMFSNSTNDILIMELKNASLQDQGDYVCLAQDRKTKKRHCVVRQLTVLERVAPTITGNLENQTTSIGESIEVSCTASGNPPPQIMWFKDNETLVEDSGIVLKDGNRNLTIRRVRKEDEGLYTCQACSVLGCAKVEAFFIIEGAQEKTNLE
Sequence of VEGFR2 on MS1 murine endothelial cells (P35918 20-1345): as the sequence (P35918 20-1345) above
Sequence of human VEGFR2 on HUVEC and KDR-PAE cells (P35968 20-1356): as the sequence (P35968 20-1356) above

B1: Mab 147: affinity matured anti-VEGFR2 antibody derived from Mab 138; VH SEQ ID NO:200, VL SEQ ID NO:204 (antibody, V domains shown)
VH: EVQLLESGGGLVQPGGSLRLSCAASGFTFSWYVMGWVRQAPGKGLEWVSSIYPQGGATSYADSVKGRFTISRDNSKNTLYLQMNSLRAEDTAVYYCARGNYFDYWGQGTLVTVSS
VL: DIQMTQSPGTLSLSPGEGATLSCRASQSVSSNYFGWYQQKPGQAPRLLIYGASSRATGIPDRFSGSGSGTDFTLTISRLEPEDSAVYYCQQFDSLPLTFGGGTKVEIKR
modifications: Mutation of library member
In the case of B1, the ka in [1] turned out to be 4.38E+04; in assay [7] it was 1.13E+05; in [12], 6.45E+04. Further, the figures for the kd in assay [1], in assay [7] and in assay [12] were 1.28E−03, 2.82E−04 and 8.99E−04, respectively. Further, the “binding to human VEGFR2” value in [2] was “binds to both hVEGFR2 and mVEGFR2 with similar affinity”. The “blocking of binding of murine VEGF with murine VEGFR2” value in assay [3] is “blocks ligand binding”. For the same molecule, the “VEGF-induced migration of KDR-PAE cells” value in assay [4] is “inhibiting”. Also, the “phosphorylation of KDR and p44/42” value in assay [5] is “inhibit”; in assay [5] (listed as Mab-147), “reduced phosphorylation”; in assay [11], “inhibit”; in assay [11] (listed as Mab-147), “reduced phosphorylation”. Further, in assay [6], the “proliferation of KDR-PAE cells” value was “inhibit”. In addition, in assay [8], the “blocking of binding of human VEGF with human VEGFR2” value is recorded as “blocks ligand binding”. Also, the “binding to murine VEGFR2” value in assay [9] was “binds to both hVEGFR2 and mVEGFR2 with similar affinity”. The “binding to VEGFR2 on MS1 murine endothelial cells” value in [10] is reported as “binds; also recorded: bound”. For the same molecule, the “binding to hVEGFR2 expressed on cell membranes” value in assay [13] was “confirmed”.

These data come from US10125144B2, “Rho kinase inhibitors” (Kadmon Corporation, LLC, priority 2013, dated 2018).
